{"source": "paper PMC11224109", "about": "“Synthesis and preclinical evaluation of novel ^18F-vancomycin-based tracers for the detection of bacterial infections using positron emission tomography” (European Journal of Nuclear Medicine and Molecular Imaging, 2024)", "key": {"[1]": {"assay": "Biodistribution in vivo and PET in healthy mice", "details": "for tissue uptake at 0.5 h / tissue uptake at 1 h / tissue uptake at 1.5 h: male, C57BL/6, mouse, in vivo, iv, 2 MBq, total radioactivity, Biodistribution, healthy male C57BL/6 mice, penile vein injection, gamma counter, mean of n = 3; for tissue uptake at 0.5 h: 30 min; for tissue uptake at 1 h: 60 min; for tissue uptake at 1.5 h: 90 min", "method": "All murine experiments were approved by the Animal Care and Use Committee of the University of Groningen under license protocol number 2114768-01-001. In vivo biodistribution was performed in male C57BL/6 mice (age 8 weeks, 25 g). Per tracer, the animals were divided in three groups based on the tracer distribution times (30 min, 60 min, and 90 min). […] Each experimental arm (i.e. time point) consisted of three animals. […] Tracer was administered at t = 0 via penile vein injection (2.0 ± 0.9 MBq in 100 µL 0.9% saline solution, Supplemental Table 2). After tracer administration, the animals were transferred to a Siemens Focus 220 microPET small animal scanner (Siemens, Munich, Germany) and scanned for the designated time, followed by a transmission scan of 10 min for attenuation correction. PET data were normalized and corrected for decay, after which the PET data were reconstructed using OSEM2D-Z1-SC-256. The PET data frames used for reconstruction were: 6 × 10 s, 4 × 30 s, 2 × 60 s, 120 s, 180 s, 4 × 300 s, 3 × 600 s, 1200 s or until the designated scan time was reached, taking into account a 10-min transmission scan following the emission scan. Next, animals were terminated, and organs harvested to assay biodistribution in a calibrated gamma counter (Wizard2, Perkin Elmer, Waltham, United States)."}, "[2]": {"assay": "Distribution coefficient LogD7.4, shake-flask n-octanol/PBS", "type": "physicochemical", "details": "shake-flask n-octanol/PBS pH 7.4, 500 µL each, 10 µL tracer in saline, vortexed 30 s, shaken 15 min, gamma counter, mean ± SD", "method": "The tracer distribution coefficient in n-octanol/PBS pH 7.4 (LogD7.4) was determined using a shake-flask methodology. To an Eppendorf tube containing 500 µL n-octanol and 500 µL PBS, 10 µL tracer solution in saline was added. The vial was vortexed for 30 s and placed on an Eppendorf shaker for 15 min. After incubation, layers were separated by centrifugation (1 min at 10.000 rpm) and a fraction of the n-octanol layer was pipetted off. To minimize contamination of the bottom layer with the n-octanol layer, the bottom PBS layer was collected by puncturing the bottom of the Eppendorf tube with a 22G needle and aspirating a fraction of the PBS layer. Collected fractions were weighted to correct for collected volume and subsequently measured on a calibrated gamma counter and corrected for decay. LogD7.4 was calculated as [drawing 1] ."}, "[3]": {"assay": "Summary of tracer stability in vitro and in vivo", "details": "summary table, in vitro and in vivo", "method": "Stability of the tracers was determined in PBS and human plasma. In a typical experiment, 1 MBq of radioactivity (10–20 µL) was added to 250 µL of PBS or human plasma. Samples were heated to 37 °C on a shaker and sampled at fixed intervals. For samples containing human plasma, protein was precipitated using two volumes of cold MeCN. Precipitated samples were briefly centrifuged to pellet the insoluble fraction and supernatant was used for stability assessment. Supernatant (1 µL) was loaded on a TLC plate and imaged using BAS-IP MS 2025 E plates (Fujifilm, Tokyo, Japan) on an Amersham Typhoon Biomolecular Imager (GE Healthcare Bio-Sciences Corp, Chicago, United States) equipped with a phosphor imaging stage. [^18F]BODIPY-FL-vancomycin has an Rf of 0.68 (petroleum ether/MeOH 3:1), [^18F]FB-vancomycin has an Rf of 0.66 (2 M NaOAc/MeOH 5:1). For [^18F]PQ-VE1-vancomycin, conditions described in [44] were used."}}, "data": [{"smiles": "CN[C@H](CC(C)C)C(=O)N[C@H]1C(=O)N[C@@H](CC(N)=O)C(=O)N[C@H]2C(=O)N[C@H]3C(=O)N[C@H](C(=O)N[C@H](C(=O)O)c4cc(O)cc(O)c4-c4cc3ccc4O)[C@H](O)c3ccc(c(Cl)c3)Oc3cc2cc(c3O[C@@H]2O[C@H](CO)[C@@H](O)[C@H](O)[C@H]2O[C@H]2C[C@](C)(NC(=O)c3ccc4c5c(c6ccccc6c4c3)OCC(OCCF)O5)[C@H](O)[C@H](C)O2)Oc2ccc(cc2Cl)[C@H]1O", "note": "(stereo partly drawn) [[^18F]PQ-VE1-vancomycin]", "values": [{"measurement": "Crossing of the blood-brain barrier (BBB)", "setting": "[1]; healthy mice, intravenous injection", "value": "no substantial signal was observed in the brain"}, {"measurement": "Accumulation", "setting": "[1]; healthy mice, summary table", "value": "Accumulation in spleen, liver and lungs"}, {"measurement": "Clearance", "setting": "[1]; healthy mice, summary table", "value": "Slow renal clearance"}, {"measurement": "Muscle uptake", "setting": "[1]; healthy mice, summary table", "value": "Low muscle uptake"}, {"measurement": "tissue uptake at 0.5 h", "setting": "[1]; Bladder", "value": 3.12, "unit": "%ID/g"}, {"measurement": "tissue uptake at 1 h", "setting": "[1]; Bladder", "value": 3.83, "unit": "%ID/g"}, {"measurement": "tissue uptake at 1.5 h", "setting": "[1]; Bladder", "value": 3.73, "unit": "%ID/g"}, {"measurement": "tissue uptake at 0.5 h", "setting": "[1]; Bone", "value": 1.14, "unit": "%ID/g"}, {"measurement": "tissue uptake at 1 h", "setting": "[1]; Bone", "value": 1.34, "unit": "%ID/g"}, {"measurement": "tissue uptake at 1.5 h", "setting": "[1]; Bone", "value": 0.75, "unit": "%ID/g"}, {"measurement": "tissue uptake at 0.5 h", "setting": "[1]; Brain", "value": 0.14, "unit": "%ID/g"}, {"measurement": "tissue uptake at 1 h", "setting": "[1]; Brain", "value": 0.14, "unit": "%ID/g"}, {"measurement": "tissue uptake at 1.5 h", "setting": "[1]; Brain", "value": 0.17, "unit": "%ID/g"}, {"measurement": "tissue uptake at 0.5 h", "setting": "[1]; Fat", "value": 0.81, "unit": "%ID/g"}, {"measurement": "tissue uptake at 1 h", "setting": "[1]; Fat", "value": 0.79, "unit": "%ID/g"}, {"measurement": "tissue uptake at 1.5 h", "setting": "[1]; Fat", "value": 0.55, "unit": "%ID/g"}, {"measurement": "tissue uptake at 0.5 h", "setting": "[1]; Heart", "value": 3.54, "unit": "%ID/g"}, {"measurement": "tissue uptake at 1 h", "setting": "[1]; Heart", "value": 2.6, "unit": "%ID/g"}, {"measurement": "tissue uptake at 1.5 h", "setting": "[1]; Heart", "value": 1.82, "unit": "%ID/g"}, {"measurement": "tissue uptake at 0.5 h", "setting": "[1]; Kidneys", "value": 3.37, "unit": "%ID/g"}, {"measurement": "tissue uptake at 1 h", "setting": "[1]; Kidneys", "value": 2.73, "unit": "%ID/g"}, {"measurement": "tissue uptake at 1.5 h", "setting": "[1]; Kidneys", "value": 2.04, "unit": "%ID/g"}, {"measurement": "tissue uptake at 0.5 h", "setting": "[1]; Large intestine", "value": 2.28, "unit": "%ID/g"}, {"measurement": "tissue uptake at 1 h", "setting": "[1]; Large intestine", "value": 1.81, "unit": "%ID/g"}, {"measurement": "tissue uptake at 1.5 h", "setting": "[1]; Large intestine", "value": 1.98, "unit": "%ID/g"}, {"measurement": "tissue uptake at 0.5 h", "setting": "[1]; Liver", "value": 10.5, "unit": "%ID/g"}, {"measurement": "tissue uptake at 1 h", "setting": "[1]; Liver", "value": 9.33, "unit": "%ID/g"}, {"measurement": "tissue uptake at 1.5 h", "setting": "[1]; Liver", "value": 7.72, "unit": "%ID/g"}, {"measurement": "tissue uptake at 0.5 h", "setting": "[1]; Lungs", "value": 4.71, "unit": "%ID/g"}, {"measurement": "tissue uptake at 1 h", "setting": "[1]; Lungs", "value": 3.8, "unit": "%ID/g"}, {"measurement": "tissue uptake at 1.5 h", "setting": "[1]; Lungs", "value": 3.21, "unit": "%ID/g"}, {"measurement": "tissue uptake at 0.5 h", "setting": "[1]; Muscle", "value": 0.86, "unit": "%ID/g"}, {"measurement": "tissue uptake at 1 h", "setting": "[1]; Muscle", "value": 0.85, "unit": "%ID/g"}, {"measurement": "tissue uptake at 1.5 h", "setting": "[1]; Muscle", "value": 0.6, "unit": "%ID/g"}, {"measurement": "tissue uptake at 0.5 h", "setting": "[1]; Plasma", "value": 6.12, "unit": "%ID/g"}, {"measurement": "tissue uptake at 1 h", "setting": "[1]; Plasma", "value": 4.47, "unit": "%ID/g"}, {"measurement": "tissue uptake at 1.5 h", "setting": "[1]; Plasma", "value": 2.88, "unit": "%ID/g"}, {"measurement": "tissue uptake at 0.5 h", "setting": "[1]; Small intestine", "value": 2.99, "unit": "%ID/g"}, {"measurement": "tissue uptake at 1 h", "setting": "[1]; Small intestine", "value": 2.19, "unit": "%ID/g"}, {"measurement": "tissue uptake at 1.5 h", "setting": "[1]; Small intestine", "value": 1.79, "unit": "%ID/g"}, {"measurement": "tissue uptake at 0.5 h", "setting": "[1]; Spleen", "value": 7.89, "unit": "%ID/g"}, {"measurement": "tissue uptake at 1 h", "setting": "[1]; Spleen", "value": 11.5, "unit": "%ID/g"}, {"measurement": "tissue uptake at 1.5 h", "setting": "[1]; Spleen", "value": 8.39, "unit": "%ID/g"}, {"measurement": "tissue uptake at 0.5 h", "setting": "[1]; Stomach", "value": 2.28, "unit": "%ID/g"}, {"measurement": "tissue uptake at 1 h", "setting": "[1]; Stomach", "value": 2.45, "unit": "%ID/g"}, {"measurement": "tissue uptake at 1.5 h", "setting": "[1]; Stomach", "value": 1.92, "unit": "%ID/g"}, {"measurement": "tissue uptake at 0.5 h", "setting": "[1]; Whole blood", "value": 3.71, "unit": "%ID/g"}, {"measurement": "tissue uptake at 1 h", "setting": "[1]; Whole blood", "value": 2.56, "unit": "%ID/g"}, {"measurement": "tissue uptake at 1.5 h", "setting": "[1]; Whole blood", "value": 1.86, "unit": "%ID/g"}, {"measurement": "LogD7.4", "setting": "[2]", "value": "-0.51 ± 0.07 (n = 9)"}, {"measurement": "Stability", "setting": "[3]", "value": "Stable in vitro and in vivo up to 2 h."}]}]}
